Measured values reported in the supplement of paper PMC10724198.
± gives the standard deviation of the averaged measurements.

Tested on: Saccharomyces cerevisiae
Experiment: protein stability index of tFT-peptide fusion (C-terminal peptide) (PSI (0-1 scale)); higher = more stable (slower turnover)
Conditions: genetic background: wild type; temperature: 30 C
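Further: PSI is a weighted mean of sequencing reads over stability bins, variants kept only with over 10 reads, mCherry proximal and sfGFP distal, peptide attached via GGGS linker.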

Row | Sequence | protein stability index
1 | PAWVEARWLCRG | 0.764 ± 0.069
2 | PAYLMDRGYIMT | 0.613 ± 0.031
3 | PAYVSTLPPLLL | 0.694 ± 0.086
4 | PCFLLPLPHTPP | 0.707 ± 0.024
5 | PCIKHNSSLIGP | 0.701 ± 0.081
6 | PCPAPLPPPAPP | 0.619 ± 0.0098
7 | PCPLAHSLWLMF | 0.612 ± 0.056
8 | PCPPARSSLALS | 0.636 ± 0.051
9 | PCPSPPALPLAP | 0.696 ± 0.056
10 | PCTGSKRRSLKS | 0.717 ± 0.055
11 | PCTPLPRPRTSR | 0.702 ± 0.065
12 | PCYSFSSSPPRL | 0.693 ± 0.016
13 | PDERMVIPAIRD | 0.665 ± 0.12
14 | PDHFPSPALPTH | 0.702 ± 0.0097
15 | PDPPSPSPFPAP | 0.724 ± 0.049
16 | PDRQVTAFPCFW | 0.6787 ± 0.0051
17 | PDSASSLTPPPP | 0.66 ± 0.085
18 | PDTLCAYLSFGS | 0.776 ± 0.064
19 | PDTRLGIIITNM | 0.701 ± 0.083
20 | PDVFIWIRPLLP | 0.6282 ± 0.0062
21 | PDVNLVRRVMSL | 0.596 ± 0.053
22 | PDVPVTCYAASH | 0.661 ± 0.067
23 | PEERSGTSAGRL | 0.695 ± 0.038
24 | PEGICYCHSPAP | 0.694 ± 0.013
25 | PEGPPRPPLHPS | 0.696 ± 0.019
26 | PEPEPAGASQKR | 0.577 ± 0.0076

Row | Sequence | protein stability index
27 | PERWFPSTPSLP | 0.702 ± 0.031
28 | PEYGSGCNCLGS | 0.664 ± 0.0073
29 | PFAPSPRPPQPP | 0.672 ± 0.02
30 | PFATARLFPLPP | 0.804 ± 0.019
31 | PFECRRPFPPPA | 0.764 ± 0.067
32 | PFEVPSSVISVP | 0.673 ± 0.13
33 | PFIAHSACAALN | 0.604 ± 0.011
34 | PFIPQPFPPLCS | 0.709 ± 0.075
35 | PFPFLPSPIFPQ | 0.749 ± 0.057
36 | PFPPPPSPPLYP | 0.7292 ± 0.0012
37 | PFPPSAAPPLPF | 0.593 ± 0.068
38 | PFPPSAHPPPPH | 0.795 ± 0.085
39 | PFPRSSPPPPPD | 0.652 ± 0.017
40 | PFPSPPSPRDAS | 0.688 ± 0.042
41 | PFRSPSLPYFRL | 0.712 ± 0.018
42 | PFSLLPDASPPL | 0.703 ± 0.04
43 | PFSLPPPHLWSI | 0.746 ± 0.065
44 | PFVCPHLPAPPP | 0.791 ± 0.094
45 | PFVGFSLLWLGF | 0.567 ± 0.017
46 | PGAFLRLSPPRA | 0.7019 ± 0.0013
47 | PGAGKRLIERVK | 0.593 ± 0.062
48 | PGCGVGSPARAE | 0.712 ± 0.032
49 | PGCYRVPIHSFS | 0.7131 ± 0.0015
50 | PGKRPTERLAPS | 0.749 ± 0.026
51 | PGLIPSPRYLLP | 0.656 ± 0.024
52 | PGLSTGAVKLLY | 0.692 ± 0.023

Row | Sequence | protein stability index
53 | PGPGNGHTKRTR | 0.654 ± 0.034
54 | PGRLVVGAGRED | 0.707 ± 0.036
55 | PGRRATKVPSPR | 0.719 ± 0.027
56 | PGSAVSFLLTFR | 0.646 ± 0.012
57 | PGSFDLSDLAFA | 0.707 ± 0.073
58 | PGSRRAQPVTSG | 0.741 ± 0.022
59 | PGTGPPSWGRTS | 0.605 ± 0.047
60 | PGTNENPLSPGK | 0.7302 ± 0.0041
61 | PHAGPLHTPLRL | 0.699 ± 0.019
62 | PHILPTSDSPFP | 0.78463 ± 0.00073
63 | PHLHLPPPPISA | 0.5857 ± 0.00069
64 | PHLPPPPDPPRP | 0.676 ± 0.009
65 | PHLWSLPHATTA | 0.684 ± 0.051
66 | PHPHLPAPTPRT | 0.702 ± 0.0079
67 | PHPPLPPPPPPP | 0.702 ± 0.018
68 | PHPPPSSRLLSR | 0.751 ± 0.058
69 | PHPQPRPTAPSP | 0.7177 ± 0.002
70 | PHPVTVFLSHLS | 0.499 ± 0.041
71 | PHRPCPPPAPPP | 0.658 ± 0.0096
72 | PHRPIGRVKHAS | 0.71 ± 0.038
73 | PHSPPRPLPPPL | 0.703 ± 0.047
74 | PHTPARSLPPSR | 0.6473 ± 0.0047
75 | PIAPDPAPVGLD | 0.721 ± 0.014
76 | PILPPVPPRASS | 0.7029 ± 0.0053
77 | PIPSVFSPFLFA | 0.641 ± 0.015
78 | PIQYMLRSSMPR | 0.688 ± 0.065

Row | Sequence | protein stability index
79 | PISPPSFRSPTP | 0.691 ± 0.029
80 | PISPSLCSSILS | 0.5893 ± 0.0056
81 | PISRRVIFCLQT | 0.62 ± 0.033
82 | PITFTSRYLLLE | 0.697 ± 0.042
83 | PIVRTQLGNSVQ | 0.696 ± 0.067
84 | PIYRNKGNRGGI | 0.739 ± 0.034
85 | PKKKKKKTKAEK | 0.712 ± 0.035
86 | PKSGPDQPQPPG | 0.591 ± 0.086
87 | PLAFFSTRPTPF | 0.697 ± 0.03
88 | PLALLPPPPHPP | 0.597 ± 0.07
89 | PLAPPPLSPSPI | 0.7873 ± 0.0059
90 | PLAPPPSILPVP | 0.703 ± 0.055
91 | PLAPPRHRRRPG | 0.7132 ± 0.0047
92 | PLARLRFRSVVG | 0.6678 ± 0.0038
93 | PLASRPHPLPPP | 0.671 ± 0.02
94 | PLDAPDTRVWEI | 0.738 ± 0.061
95 | PLFLCVISPFRL | 0.5805 ± 0.0018
96 | PLFLYCRSAPRL | 0.817 ± 0.025
97 | PLFPGLARLSSS | 0.703 ± 0.031
98 | PLFPSPSPPRHP | 0.7435 ± 0.0018
99 | PLFTPPPVLHHP | 0.752 ± 0.031
100 | PLGFFHKQSATV | 0.666 ± 0.023
101 | PLGLPLPCPFLL | 0.683 ± 0.063
102 | PLHPLPPAPFPP | 0.689 ± 0.01
103 | PLIDRSTCSLSG | 0.6366 ± 0.0032
104 | PLIVSPCYSLVP | 0.659 ± 0.014

Row | Sequence | protein stability index
105 | PLLGPSCLRPPS | 0.791 ± 0.17
106 | PLLIPPPPTYPP | 0.63 ± 0.038
107 | PLLLAPPPPSPP | 0.739 ± 0.036
108 | PLLPPALPASPF | 0.6972 ± 0.0019
109 | PLLPPPLSPFPH | 0.659 ± 0.013
110 | PLLPPPPPLSPP | 0.6772 ± 0.0035
111 | PLLPRSILSATG | 0.641 ± 0.043
112 | PLLPRTPPLSAT | 0.671 ± 0.0079
113 | PLLPSLPLPPSP | 0.716 ± 0.011
114 | PLLRGFPAHLAS | 0.699 ± 0.078
115 | PLNHIVHPHRAP | 0.687 ± 0.0052
116 | PLPAPAPSPPSP | 0.695 ± 0.018
117 | PLPHSPPPPPPT | 0.736 ± 0.024
118 | PLPLLPLPPLAP | 0.67 ± 0.098
119 | PLPLPPPFPPLS | 0.59 ± 0.043
120 | PLPLPSPAPPYS | 0.68 ± 0.013
121 | PLPLPTPPAFLS | 0.707 ± 0.08
122 | PLPPASPCLCSY | 0.643 ± 0.049
123 | PLPPHRLPNPRL | 0.784 ± 0.011
124 | PLPPLPPPLSPP | 0.732 ± 0.067
125 | PLPPLPPTRPLP | 0.688 ± 0.026
126 | PLPPPFPGSALL | 0.727 ± 0.01
127 | PLPPPLDLPPRS | 0.735 ± 0.12
128 | PLPPPNPPLPVF | 0.615 ± 0.036
129 | PLPPPPAPPLSP | 0.67 ± 0.018
130 | PLPPPPDSPPLP | 0.694 ± 0.013

Row | Sequence | protein stability index
131 | PLPPPSLPPSPS | 0.699 ± 0.036
132 | PLPPSPLESVDT | 0.637 ± 0.027
133 | PLPPSPTRPPAN | 0.662 ± 0.0099
134 | PLPPVPRTPTPR | 0.662 ± 0.075
135 | PLPPVVPTFSTP | 0.684 ± 0.0077
136 | PLPRLSPFSHPP | 0.701 ± 0.052
137 | PLPSPSSSSSPI | 0.674 ± 0.043
138 | PLRDIRSVRYSS | 0.685 ± 0.053
139 | PLRMFRGGISWR | 0.734 ± 0.037
140 | PLRPPAPRHSPP | 0.723 ± 0.013
141 | PLRRPFSSPFLL | 0.59 ± 0.067
142 | PLRSDSRAESLL | 0.653 ± 0.051
143 | PLRSTYPSLLLP | 0.691 ± 0.011
144 | PLRTCPCAPLPS | 0.689 ± 0.012
145 | PLSDDPRRPLST | 0.688 ± 0.069
146 | PLSLLVHPLPPS | 0.679 ± 0.011
147 | PLSPAPPRPPPP | 0.621 ± 0.023
148 | PLSPRPLPPPPP | 0.713 ± 0.0018
149 | PLSPRSASTFSP | 0.67 ± 0.0013
150 | PLSPSCTLPPRP | 0.674 ± 0.034
151 | PLSTPLSPALLS | 0.602 ± 0.023
152 | PLSYRPPSRFYF | 0.587 ± 0.061
153 | PLTRSRFLLSPL | 0.653 ± 0.034
154 | PLTVARTHRGHA | 0.689 ± 0.014
155 | PLVVETNRFGDV | 0.6988 ± 0.004
156 | PMHVILGLSGQP | 0.732 ± 0.059

Row | Sequence | protein stability index
157 | PMLRSLVVLSSR | 0.669 ± 0.022
158 | PMPRHVPRPTTP | 0.674 ± 0.06
159 | PNPLCQPPTGRP | 0.705 ± 0.14
160 | PNPPYFPSPGRS | 0.74 ± 0.044
161 | PNRKCSGTFAAS | 0.65573 ± 0.00064
162 | PNTNIRTHCQWI | 0.709 ± 0.02
163 | PNVAIMSGGQTV | 0.6912 ± 0.0059
164 | PPACAHPLFWTL | 0.6499 ± 0.00087
165 | PPACPSSRIPVF | 0.615 ± 0.041
166 | PPALRPPPPPPP | 0.6932 ± 0.0019
167 | PPAPHPHLPSSY | 0.685 ± 0.072
168 | PPAPLPLAPSSL | 0.722 ± 0.042
169 | PPAPPLPSSPSP | 0.773 ± 0.024
170 | PPAPPSPPHPPL | 0.7133 ± 0.0036
171 | PPAPRLPPPLPP | 0.629 ± 0.021
172 | PPAPSPPPLPAA | 0.665 ± 0.031
173 | PPASFTPPFLPP | 0.69 ± 0.013
174 | PPASPRSPIVSR | 0.723 ± 0.059
175 | PPATQSPPLPPC | 0.766 ± 0.037
176 | PPCFPHPLPPPR | 0.744 ± 0.022
177 | PPCPFPTLPVTH | 0.73 ± 0.013
178 | PPCTSTTQRANP | 0.696 ± 0.073
179 | PPDLPTRSPDNP | 0.658 ± 0.04
180 | PPDSSPLGGEVG | 0.6775 ± 0.0058
181 | PPFAPAPALSAS | 0.758 ± 0.11
182 | PPFFFIDMGASN | 0.697 ± 0.054

Row | Sequence | protein stability index
183 | PPFFPLRPSLVL | 0.656 ± 0.051
184 | PPFLRSALRSSS | 0.672 ± 0.015
185 | PPFLYVLVSSIL | 0.54 ± 0.15
186 | PPFPHPSRLPPA | 0.726 ± 0.028
187 | PPFPPAPPRGPA | 0.659 ± 0.043
188 | PPGLPPGPARPP | 0.635 ± 0.036
189 | PPGPPPSSPPPP | 0.73 ± 0.024
190 | PPGSPPSLHLPP | 0.734 ± 0.021
191 | PPHCPLVLPSLS | 0.67 ± 0.044
192 | PPHHPPPTLFPA | 0.698 ± 0.076
193 | PPHNPTPSPTTP | 0.719 ± 0.11
194 | PPHPLSLSLRPP | 0.634 ± 0.034
195 | PPHPPLPPPSPS | 0.704 ± 0.056
196 | PPHPPNFSSPPP | 0.656 ± 0.023
197 | PPHPPPPAPLPS | 0.73 ± 0.029
198 | PPHPPPPSPTPP | 0.656 ± 0.019
199 | PPHPVTLSPART | 0.614 ± 0.04
200 | PPHTHTQRPSPT | 0.715 ± 0.027
201 | PPILLPPPDASH | 0.702 ± 0.025
202 | PPINPTEPPITI | 0.696 ± 0.092
